Among the data in paper doi:10.1101/2020.07.31.231746 are Kd values, retold here.

What all share (experiment): flow cytometry on cells
In general terms: A flow cytometer gives signals particle by particle.

The target in assay [1] is best-characterized ACE2(614) mutant from sort 3.1, yeast surface-displayed (human) (UniProt Q9BYF1).
In assay [2] the target is Y373, yeast surface-displayed ACE2(614) variant from sort 5 (human) (UniProt Q9BYF1).
In assay [3] the target is Y353, yeast surface-displayed ACE2(614) variant from sort 4 (human) (UniProt Q9BYF1).

What is called Kd is the equilibrium constant for the complex coming apart.

As to “SARS-CoV-2 spike RBD monomer (328-533), 8XHis tag and AviTag, biotinylated (from UniProt P0DTC2 328-533) (domain or fragment)”, the Kd worked out at 520 pM in assay [1], 120 pM in assay [2] and 190 pM in assay [3].
